Laboratory results reported in publication PMC5314460 (Structure (London, England : 1993), 2017).

Experiments:
Experiment in all cases: pull-down
[1] = target: T1, SUMO-Rps3 (yeast, UniProt P05750 1-240)
T1 sequence: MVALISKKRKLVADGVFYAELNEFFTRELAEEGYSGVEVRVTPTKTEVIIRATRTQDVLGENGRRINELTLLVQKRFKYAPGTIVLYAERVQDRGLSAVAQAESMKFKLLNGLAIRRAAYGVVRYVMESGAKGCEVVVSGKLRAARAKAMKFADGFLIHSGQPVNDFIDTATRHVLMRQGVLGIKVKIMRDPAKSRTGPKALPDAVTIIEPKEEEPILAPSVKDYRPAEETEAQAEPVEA

[2] = target: T2, Enp1-TPR (residues 154-483) (yeast, UniProt P38333 154-483)
T2 sequence (looked up): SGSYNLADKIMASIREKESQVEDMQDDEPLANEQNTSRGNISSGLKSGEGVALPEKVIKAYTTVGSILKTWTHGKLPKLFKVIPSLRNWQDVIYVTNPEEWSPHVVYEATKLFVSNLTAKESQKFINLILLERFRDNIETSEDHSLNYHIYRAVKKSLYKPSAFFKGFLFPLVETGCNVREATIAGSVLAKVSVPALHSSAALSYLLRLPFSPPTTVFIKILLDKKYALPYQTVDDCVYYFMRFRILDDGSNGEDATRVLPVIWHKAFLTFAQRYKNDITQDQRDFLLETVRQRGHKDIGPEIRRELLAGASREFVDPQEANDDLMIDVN

[3] = target: T3, Enp1 (yeast, UniProt P38333 1-483)
T3 sequence (looked up): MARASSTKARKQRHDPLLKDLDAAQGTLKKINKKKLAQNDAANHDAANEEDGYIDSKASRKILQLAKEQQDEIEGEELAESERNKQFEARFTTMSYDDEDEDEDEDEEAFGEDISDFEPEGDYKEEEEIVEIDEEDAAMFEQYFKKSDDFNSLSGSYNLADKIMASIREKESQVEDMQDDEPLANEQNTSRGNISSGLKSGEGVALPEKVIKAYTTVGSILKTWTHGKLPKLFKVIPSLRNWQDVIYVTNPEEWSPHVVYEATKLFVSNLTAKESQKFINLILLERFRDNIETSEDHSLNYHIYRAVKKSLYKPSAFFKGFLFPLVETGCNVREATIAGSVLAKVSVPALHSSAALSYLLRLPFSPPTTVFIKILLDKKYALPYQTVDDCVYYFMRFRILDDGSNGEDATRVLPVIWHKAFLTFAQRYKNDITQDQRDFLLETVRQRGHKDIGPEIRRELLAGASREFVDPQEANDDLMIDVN

B1: Ltv1-N (N-terminal 180 residues) (domain or fragment, yeast, UniProt P34078 1-180, looked up)
chain: MSKKFSSKNSQRYVVVHRPHDDPSFYDTDASAHVLVPVSNPNKTSPEADLRKKDVSSTKPKGRRAHVGEAALYGINFDDSEYDYTQHLKPIGLDPENSIFIASKGNEQKVEKKNIEDLFIEPKYRRDEIEKDDALPVFQRGMAKPEYLLHQQDTTDEIRGFKPDMNPALREVLEALEDEA
Q: Does B1 bind [1]?
A: binds

B2: Ltv1-M (residues 185-394) (domain or fragment, yeast, UniProt P34078 185-394, looked up)
chain: DDVVVEDISKKTQLQGDNYGEEEKEDDIFAQLLGSGEAKDEDEFEDEFDEWDIDNVENFEDENYVKEMAQFDNIENLEDLENIDYQADVRRFQKDNSILEKHNSDDEFSNAGLDSVNPSEEEDVLGELPSIQDKSKTGKKKRKSRQKKGAMSDVSGFSMSSSAIARTETMTVLDDQYDQIINGYENYEEELEEDEEQNYQPFDMSAERSD
Q: Does B2 bind [2]?
A: binds

Q: Does B2 bind [3]?
A: binds

Q: Does B2 bind [1]?
A: binds
